In the nanobody polyreactivity screen of Harvey et al. (2022):

Test: yeast display, Sf9 membrane polyspecificity reagent, FACS + sequencing; frameworks hold sequencing errors
Method in brief: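 Galactose-induced (36–48 hours) yeast carrying a synthetic nanobody display library were exposed to 10% biotinylated, detergent-solubilized Sf9 membrane reagent at 4 °C for 1 hour. FACS followed streptavidin microbead enrichment, using low and high (top ~1%) gates for expression (anti-HA) and reagent binding (streptavidin). Colony PCR, MiSeq 2 × 250 sequencing and CDR-length filtering followed. Labels for polyreactivity reflect the gate of origin.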

Sequence | polyreactivity (PSR sort gate)
QVQLVESGGGIDQAGGSLRLRCAASGFIFRYYAMGWYRLAPGKESELVAVISASGGSTYYADSVKGRFTISRDNAKKTVYLQMNSRKPEDTAVYYCNTKRYFFHRGDMDYWGQGTQVTVSS | high polyreactivity
QVQLVESGGGIDQAGGSLRLSCAASGFIFTNYAMGWYRQAPGKERELVAAITRRGGGTYYADSVKGRFTISRDNAKKTVYVQMNSLKPEDTAVYYCAKYSRLVTANDYDYWGQGTQVTVSS | high polyreactivity
QVQLVESGGGIDQAGGSLRLSCAASGNTFYWYAMGWYRQAPGKERDLVAAISRGGRTNYADSVKGRFTISRDNAKNTVYLQMNSLKPEDTAVYFCAKDSNYPQPSKGWYRYDYWGLGTQVTVSS | high polyreactivity
QVQLVESGGGIDQAGGSLRLSCAASGRTFTSNAMGWYRQAPGKERELVAVIDRSGTSTYYADSVKGRFTISRDNAKNTVYLQMNSLKPEDTAVYYCAVRVRYSYTSRAKMYYWGQGTQVTVSS | high polyreactivity
QVQLVESGGGIVEAGGSLRLSCAASGRIFNQYAMGWYRQAPGKEREFVAAIRWSGGRTYYADSVKGRFTISRDNAKNTVYLQMNRLKPEDTAVYYCAADLYGNNYWDGTTGYDYWGQGTQVTVSS | low polyreactivity
QVQLVESGGGIVEAGGSLRLSCAASGSTYYWNAMVWYIQAPGKERELVAAISRDGSTYYADSVNGRFTISRDNAKKTVYLHMNCLKPEVTAVYYCAKACVTNVVVVDSVFAYDYWGQGTIVTVSS | low polyreactivity
QVQLVESGGGIVKAGGSLRLSCAPSGSTFDYYTMGWYRQAPGKERELVAAISRSGGSTRYADSVKGRFTISRDNAKNTVDLQMNSLKPEDTAVYYCAAGARQGVYRGGDYWGQGTQVTVSS | low polyreactivity
QVQLVESGGGIVQAGCSLRLICAASGRIFYSNYMGWYRQAPGKERELVAAISSSGGSTYYADSLKGRFTISRDNANNTVYLQMNSLKPEDTAVYYCNAVHARYRSQGDYWGQGTQVTVSS | low polyreactivity
QVQLVESGGGIVQAGCSLRLSCAASGRTFSWNSMGWYRQAPGKERELVAAITYSGGNTYYADSVKGRFSISRDNAKNTVYLQMNSLKQEDTAVYYCAKFGVTGQGSWSQRMGYWGQGTQVTVSS | high polyreactivity
QVQLVESGGGIVQAGGILRLTGAASVITNTSYAMGWYRQAPGKERELVAAISSSGVRTYYADSVKGRFTISRDNAKNTVYLQLNSLKPEDTAVYYCATRRRVLFGYDYWGQGTQVTVSS | high polyreactivity
QVQLVESGGGIVQAGGRHRLSCAASGRTFWRNPMGWYSPAPGKERELVASIRITGGSTYYADSVMGRFTISRDNAKTTVYLQMNSLNAEDTAVYYCPASSGIRFVGLSYPIGNYYYWGQGSQVTVSS | high polyreactivity
QVQLVESGGGIVQAGGRLRLSCAASGFTCARNVMGWYRQAPGKERELVAAITTSGGSTYYADSVKGRFTISRDNAKNTVSLQMNSLKPEDTAGYYCARRVYGYYIPYNYWGQGTQVTVSS | high polyreactivity
QVQLVESGGGIVQAGGRLRLSCDASGSTFSRYTMGWYRQAPGKEREFVAAIRTSGGRTYEDSVKGRFTISRDNAKNTVYVQMNSLKPEDTAVYYCAATRYYGYNTKYEYWGQGTQVTVSS | high polyreactivity
QVQLVESGGGIVQAGGSHRLSCAASGSIFVSNAMGWYRQAPGKERELVAAISQSGGSTYYADSVKGRFTISRDTAKNTVYLQMNSLNPEDTAVYYCATPIRSGFRIYDYWGQGTQVTVSS | low polyreactivity
QVQLVESGGGIVQAGGSHRLSCAASGYIFKPNHMGWYRQAPGIDRELVAAISKSRGTTYYADSVKGRFTISRDNAKNTVYLQMNGLKPEDTAVYFCGGVRRYHSYPDGGYWGQGSQVTVSS | high polyreactivity
QVQLVESGGGIVQAGGSLLLSCAASGSTIIRYVKGWYRQAPGTERELVAGINSSAGSTNYADSVKGRFTISRDNAKNTVYLQMISLKPEDTAVYYCNADLRSEYDYWGQGTQVTVSS | low polyreactivity
QVQLVESGGGIVQAGGSLRISCAASGIIFQYYVMGWYRQAPGKESELVAAIEKSGGSTYYADSLKGRFTISRDYAKNTVYLQMNSLNPDDTAVYYCAATSYAHKYYGYFGAIKYEYWGQGTQVTVSS | low polyreactivity
QVQLVESGGGIVQAGGSLRKSCAASGFTFDENAMGWYRQAPGINYSGASTYYADSVKGRFTISRDNAKNTVYLQMNSLKPEDTAVYYCAAEVVAQMNYWGQGTQVTVSS | low polyreactivity
QVQLVESGGGIVQAGGSLRLICAASGSIFDVNALGWYSQAPGKERELVAAITWSGGNTYYADSVKGRFTISRDNAKNNFYLQMYSLKPEDTAVYYCNVYVSAGEEDEYWGQVTQVTVSS | low polyreactivity
QVQLVESGGGIVQAGGSLRLICAASGYTFNYYAMGWYRQAPGKEREFVASTYADSVKGRFTISRDNAKNTVYLQMNSLKPEDTAVYYCNARNLGRYLVLSYGYWGQGTQVTVSS | low polyreactivity
QVQLVESGGGIVQAGGSLRLICAASVITLVLYAMVWYRQAPGKERELLAAISSSGGSTYYADSVKGRFTISRDNAKNTVYLQMTSLKPEDTAVYYCNVTPDWNARRPFDYWGQGTQVTVSS | high polyreactivity
QVQLVESGGGIVQAGGSLRLRCAASGYTFEDNDMGLYRQAPGKERELVAAISVNGGSTYYADSVKGRFTISRDNAKKTVYLQMNSLKPVDTAVFYCNVDTLIGSLYGYDYWGQGTQVTVSS | high polyreactivity

Sequence | polyreactivity (PSR sort gate)
QVQLVESGGGIVQAGGSLRLRCAATASIYVHYAMGWYIQAPGKETDLVAAIRWRGGSTNYADSVKGRFTISRDNAKNTVDLQMNSLKQEDTAVSYCNARHPASGDLYRMDYWGPGTQVTVSS | low polyreactivity
QVQLVESGGGIVQAGGSLRLSCAASGFIFDVYAMGWYRQAPGKERELVAAISRSGGSTYYADSVKGRFTISRDNAKNTVYLQMNSLKPEDTAVYYCATDLLNNVDYDYWGQGTQVTVSS | low polyreactivity
QVQLVESGGGIVQAGGSLRLSCAASGFIFHRNAMGWYRQAPGKERELVASITKRGGNTYYADSVKGRFTISRDTAKNTDFLQMTSLNPEDTGVYYCATQLWGWDWKRDYWGQATQVTVSS | high polyreactivity
QVQLVESGGGIVQAGGSLRLSCAASGFIFLPYAMGWYRQAPGKERELVARISRSGASTYYADSVKGRFTISRDNAKNTVYLQMNSLKPEDTAVYYCNAVTSWPRRDFDYWGQGTQVTVSS | high polyreactivity
QVQLVESGGGIVQAGGSLRLSCAASGFIFRYYAMGWYRQAPGKERELVAAISWSGGSTYYADSVKGRFTISRDNAKNTVYLQMNSLKPEETAVYYCAAEPTGWVWYAGYGYYWGQGTQVTVSS | high polyreactivity
QVQLVESGGGIVQAGGSLRLSCAASGFTFGDYVMGWYRPAPGNERELVAAITTSGTRTSYADSVKGRFTISRDNAKNTVFLQMNSLKPEDTAVYYCAAEHTNYYYFWQAHYYWGPGTQVTVSS | high polyreactivity
QVQLVESGGGIVQAGGSLRLSCAASGFTFHTYAMGWYRQAPGKERELVAAISYSGGNTYYADSVKGRFTISRDNAMNTVYLQMNSLKPEDTAVYYCAAQSYYRYYWGQGTQVTVSS | high polyreactivity
QVQLVESGGGIVQAGGSLRLSCAASGFTFNRNAMVWYRQAPGKERELVAAISWSGGSTYYADSVKGRFTISRYNAKNTVYLQMNSLKPEDTAVYYCAKGYRRVYGPFYYWGQGTQVTVSS | low polyreactivity
QVQLVESGGGIVQAGGSLRLSCAASGFTFRTYTQGWYRQAPGKERELVAAIRSSGGGTYYADSVKGRFTISRDNAKNTVYLQMNSLKPEDTAVYYCIAVRYNSVGYDFWGQGTQVTVSS | high polyreactivity
QVQLVESGGGIVQAGGSLRLSCAASGFTFYLYAMGWYRQAPGKERELVAAISRSGGYTYYADSVKGRFSISRDNAQNTVYLQMNSLKPEDTAVYYCNARWRSGPRAYDYWGQGTQVTVSS | high polyreactivity
QVQLVESGGGIVQAGGSLRLSCAASGFTYSDYAMGWYRQAPGKERELVAGISSGGSTNYADSVKGRFTISRDNAKYTVYFQMNSLKQVDTAVYYCAAYLYATWSYFFTWLDFWGQGTKVTVSS | high polyreactivity
QVQLVESGGGIVQAGGSLRLSCAASGGTFPRYAKGWYRQAPGKEREFVAAISGSGGSTYYADSVKGRFTISRDNAKNTVLLQMNSLKPEDTAVYYCNKVPVYTPSYYWGQGSQVTVSS | low polyreactivity
QVQLVESGGGIVQAGGSLRLSCAASGIIFGYYAMGWYRQAPGKEREMVAAINQDGSSTYYADSVKGRFTISRDYAKNTVYLQMNSLKPEDTAVFYCNARGVPRQDARMGYWGQGTQVTVSS | low polyreactivity
QVQLVESGGGIVQAGGSLRLSCAASGIIFHFNDMGWYRQAPGKERELVAAITSGGSTNYADSVKGRFTISRDNAKNTVDLQMNSLKPEDTAVYYCAARRGLRLFAYRHGYWGQGTQVTVSS | low polyreactivity
QVQLVESGGGIVQAGGSLRLSCAASGIIFLDYVMVWYRQAPGKERELVAAINSGGSTYYADSVKGRFTISRDNAKNTVYLQMNSLIPEDTAVYYCAADDYYKFDYWGQGTQVTLSS | low polyreactivity
QVQLVESGGGIVQAGGSLRLSCAASGIIFWNYAMGWYRQAPGKERELVAAITDGGSTYYADSVKGRFTISRDNEKNTVYLQMNSLKPEDNAVYYCNTDWAYLSDYWGQGTQVTVSS | low polyreactivity
QVQLVESGGGIVQAGGSLRLSCAASGITFGSYVMGWYRQAPGKERELVAAINIGGGTYYADSVKGRFTISRDNAKNTVYLQMISLKPEDTAVYYCARDFYWYYRAARLDYWGQGTQVTVSS | high polyreactivity
QVQLVESGGGIVQAGGSLRLSCAASGITFKGYTMGWYRQAPGKERELVATISRGGRTYADSVKGRFTISRDNAKNTVYLQMNSLKPEDTAVYYCAAQAERYGYEYWGQGTQVTVSS | low polyreactivity
QVQLVESGGGIVQAGGSLRLSCAASGITLINYAMGWYRQAPGKERELVAAISTSGSSTYYADSVKGRFTISRDNAKNTVYLQMNSLKPEDTAVYYCAAELDVYSLFGYWGQGTQVTVSS | low polyreactivity
QVQLVESGGGIVQAGGSLRLSCAASGLIFSRNAMGWYRQAPGQERELVAAISTGGSTYYADSVKGRFTISRDNAKNTGYLQMNSLKPEDTAVYYCAAAPGYIYEYWGQGTQVTVSS | low polyreactivity
QVQLVESGGGIVQAGGSLRLSCAASGLTFQVNAMGWYRQAPGKERELVAGITFSGGSTYYADSVKGRFTISRDNAKNTVYLQMNSLKPEDTAVYYCAADARFYAYYYWGQGTQVTVSS | low polyreactivity
